Laboratory results from article PMC9668993, “CBP-HSF2 structural and functional interplay in Rubinstein-Taybi neurodevelopmental disorder” (Nature Communications, 2022).

Target: T1, CBP-Full-HAT, full-catalytic domain of murine CBP (1096-1700), 6 His-tagged (murine, UniProt P45481 1096-1700)
T1 construct: also called CBP core catalytic domain; source: recombinant, purified
T1 sequence (looked up): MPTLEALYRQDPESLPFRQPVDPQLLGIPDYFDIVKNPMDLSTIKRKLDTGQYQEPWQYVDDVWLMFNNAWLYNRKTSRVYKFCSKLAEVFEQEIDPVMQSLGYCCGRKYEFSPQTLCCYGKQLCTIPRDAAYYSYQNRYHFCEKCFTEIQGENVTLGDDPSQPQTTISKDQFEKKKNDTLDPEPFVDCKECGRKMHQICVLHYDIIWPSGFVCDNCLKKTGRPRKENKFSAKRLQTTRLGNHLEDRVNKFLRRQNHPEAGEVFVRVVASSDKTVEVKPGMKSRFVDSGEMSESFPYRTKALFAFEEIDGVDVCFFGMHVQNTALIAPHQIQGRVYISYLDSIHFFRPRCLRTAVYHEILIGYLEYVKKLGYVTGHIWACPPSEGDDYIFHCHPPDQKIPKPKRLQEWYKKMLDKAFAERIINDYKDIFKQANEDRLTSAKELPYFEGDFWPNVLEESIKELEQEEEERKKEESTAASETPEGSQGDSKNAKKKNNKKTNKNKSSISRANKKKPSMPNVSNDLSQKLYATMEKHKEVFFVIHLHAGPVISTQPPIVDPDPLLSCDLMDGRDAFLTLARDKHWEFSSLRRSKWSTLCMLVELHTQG
Experiment: BLI; Octet Red; biotinylated recombinant HSF2 immobilised at 100 nM on streptavidin biosensors in PBS; analytes diluted in PBS at 100 nM, association 600 s; Kd with a 1:1 stoichiometry model, global fit with Rmax unlinked by sensor
Settings: both partners purified

B1: biotinylated recombinant full-length HSF2 (recHSF2) (natural protein, UniProt Q03933 1-536, looked up)
chain: MKQSSNVPAFLSKLWTLVEETHTNEFITWSQNGQSFLVLDEQRFAKEILPKYFKHNNMASFVRQLNMYGFRKVVHIDSGIVKQERDGPVEFQHPYFKQGQDDLLENIKRKVSSSKPEENKIRQEDLTKIISSAQKVQIKQETIESRLSELKSENESLWKEVSELRAKHAQQQQVIRKIVQFIVTLVQNNQLVSLKRKRPLLLNTNGAQKKNLFQHIVKEPTDNHHHKVPHSRTEGLKPRERISDDIIIYDVTDDNADEENIPVIPETNEDVISDPSNCSQYPDIVIVEDDNEDEYAPVIQSGEQNEPARESLSSGSDGSSPLMSSAVQLNGSSSLTSEDPVTMMDSILNDNINLLGKVELLDYLDSIDCSLEDFQAMLSGRQFSIDPDLLVDLFTSSVQMNPTDYINNTKSENKGLETTKNNVVQPVSEEGRKSKSKPDKQLIQYTAFPLLAFLDGNPASSVEQASTTASSEVLSSVDKPIEVDELLDSSLDPEPTQSKLVRLEPLTEAEASEATLFYLCELAPAPLDSDMPLLDS
modifications: biotinylated with EZ-Link NHS-PEG4-Biotin at a molar ratio biotin/protein (3:1)
notes: heat-shock factor 2, recombinant full-length protein, catalogue TP310751; also called recombinant HSF2; source: bought: Origen (TP310751)
A Kd of 1 nM was found for B1 in this work.
